Source: patent US11911450B2, “Method for managing pain” (UNIVERSITY OF MIAMI, priority 2017, dated 2024)
“Also recorded” adds a separate entry of the source.

Columns and labels:
RYR1 = biological target: T1, RYR1 (Homo sapiens, UniProt P21817); assay: immunoprecipitation (anti-RYR1) and western blot (anti-V5) in NBL cells; format: binding; conditions: 48 h after transfection
T1 construct: NBL cells were transfected with AAV-V5-CA10 and AAV-V5-Car10 using Lipofectamin (LTX); endogenous in cells; host or cells: NBL cells transfected with V5-CA10 / V5-Car10 only
Procedure: NBL cells were transfected with AAV-V5-CA10 and AAV-V5-Car10 using Lipofectamin (LTX). Cellular protein was extracted 48 h after transfection.
Immunoprecipitation (IP) and western blotting (WB) was utilized to detect binding. Rabbit anti-RYR1 was used for IP and chicken anti-V5 was used for WB analyses. About 1/10 of the IP protein was used for WB to show the V5 labeled CA10 or Car10 by WB. B-actin was used as a loading control. See FIG. 33, which establishes co-immunoprecipitation of CA10 and RYR.

[1] = test system: RYR-dependent calcium release; assay: 5HT-induced RYR-dependent cytoplasmic calcium release in NBL cells (Fura2 imaging); format: cell-based, human; conditions: 50 μM 5HT, vs empty vector
Procedure: (§1) Pharmacodynamics—Bioassay of Calcium Release: Fifteen mm glass coverslips (cat #72228 Electron Microscopy Sciences, Hatfield, PA) were coated with poly-D-Lysine (Sigma) followed by Laminin and 1×10^5 cells were seeded on each coverslip. Twenty-four hrs later, cells were transfected with AAV2-ITR, AAV2-V5-Car10, or AAV2-V5-CA10 vectors as previously described. In embodiments wherein AAV2 is not employed, other expression vectors (including viral vectors) are used. Fura-2AM (cat #F1221 ThermoFisher scientific, Waltham, MA) was dissolved in DMSO (50 μg in 50 μl) and 1% pluronic acid-127 (cat #P2443 Sigma, St Louis, MO) as the stock solution. Forty eight hrs after seeding, cells were loaded with 2 μM Fura-2AM dye for 45 min at room temperature in the dark in a standard Ca+2 buffer solution containing: 125 mM NaCl, 2 mM MgCl, 4.5 mM KCl, 10 glucose, 20 mM HEPES, 2 mM CaCl2, pH 7.4.25. Following dye loading, coverslips were washed with Ca^+2 buffer solution. […] Regions of interest over the field of view were selected and the mean pixels intensity at each frame was measured. Data was plotted as ratio fluorescence intensity versus time and subsequently converted to a relative scale.
It was also determined that 5HT-induced RYR-dependent calcium release in NBL cells is inhibited by ryanodine. […]

[2] = test system: ITPR1-mediated cytoplasmic calcium release; assay: ATP-induced cytoplasmic calcium release in HEK293 cells (Fura-2 imaging); format: cell-based, human; conditions: 1 μM ATP, overexpression vs empty vector
Procedure: Cell culture and transfections: Human neuronal-derived (e.g., NBL), human non-neuronal derived (e.g., HEK293) cells, or dispersed rodent primary DRG cells can be used. HEK293 cells (cat #CRL-1573 ATCC Manassas, VA) were cultured in Dulbecco's modified Eagle's medium (DMEM-Glutamax cat #0566; Invitrogen) supplemented with 10% fetal bovine serum, FBS (cat #16140 ThermoFisher scientific, Waltham, MA) and 1% penicillin/streptomycin (cat #15140 ThermoFisher scientific, Waltham, MA). Cells were seeded in six-well plates at density of 1.0×10^5 cells per well. The following day, cells were transfected with plasmids via lipofectamine LTX reagent and plus (cat #15338 ThermoFisher scientific, Waltham, MA). For each transfection 2 μg of AAV2-ITR (control), AAV2-V5-Car10, or AAV2-V5-CA10 vectors was used. In various embodiments of the disclosure described herein, 2 μg of expression vectors (including positive and negative controls) in instances when AAV2 is not the viral vector employed.
as §1
To further examine whether FLAG-CA8-204 (data not shown), V5-Car10 and V5-CA10 overexpression can inhibit ATP-induced calcium release, HEK293 cells were infected with each if these constructs and real-time intracellular calcium concentrations at baseline and in response to ATP stimulation were measured (FIG. 2). […]

T1 sequence (P21817 whole entry): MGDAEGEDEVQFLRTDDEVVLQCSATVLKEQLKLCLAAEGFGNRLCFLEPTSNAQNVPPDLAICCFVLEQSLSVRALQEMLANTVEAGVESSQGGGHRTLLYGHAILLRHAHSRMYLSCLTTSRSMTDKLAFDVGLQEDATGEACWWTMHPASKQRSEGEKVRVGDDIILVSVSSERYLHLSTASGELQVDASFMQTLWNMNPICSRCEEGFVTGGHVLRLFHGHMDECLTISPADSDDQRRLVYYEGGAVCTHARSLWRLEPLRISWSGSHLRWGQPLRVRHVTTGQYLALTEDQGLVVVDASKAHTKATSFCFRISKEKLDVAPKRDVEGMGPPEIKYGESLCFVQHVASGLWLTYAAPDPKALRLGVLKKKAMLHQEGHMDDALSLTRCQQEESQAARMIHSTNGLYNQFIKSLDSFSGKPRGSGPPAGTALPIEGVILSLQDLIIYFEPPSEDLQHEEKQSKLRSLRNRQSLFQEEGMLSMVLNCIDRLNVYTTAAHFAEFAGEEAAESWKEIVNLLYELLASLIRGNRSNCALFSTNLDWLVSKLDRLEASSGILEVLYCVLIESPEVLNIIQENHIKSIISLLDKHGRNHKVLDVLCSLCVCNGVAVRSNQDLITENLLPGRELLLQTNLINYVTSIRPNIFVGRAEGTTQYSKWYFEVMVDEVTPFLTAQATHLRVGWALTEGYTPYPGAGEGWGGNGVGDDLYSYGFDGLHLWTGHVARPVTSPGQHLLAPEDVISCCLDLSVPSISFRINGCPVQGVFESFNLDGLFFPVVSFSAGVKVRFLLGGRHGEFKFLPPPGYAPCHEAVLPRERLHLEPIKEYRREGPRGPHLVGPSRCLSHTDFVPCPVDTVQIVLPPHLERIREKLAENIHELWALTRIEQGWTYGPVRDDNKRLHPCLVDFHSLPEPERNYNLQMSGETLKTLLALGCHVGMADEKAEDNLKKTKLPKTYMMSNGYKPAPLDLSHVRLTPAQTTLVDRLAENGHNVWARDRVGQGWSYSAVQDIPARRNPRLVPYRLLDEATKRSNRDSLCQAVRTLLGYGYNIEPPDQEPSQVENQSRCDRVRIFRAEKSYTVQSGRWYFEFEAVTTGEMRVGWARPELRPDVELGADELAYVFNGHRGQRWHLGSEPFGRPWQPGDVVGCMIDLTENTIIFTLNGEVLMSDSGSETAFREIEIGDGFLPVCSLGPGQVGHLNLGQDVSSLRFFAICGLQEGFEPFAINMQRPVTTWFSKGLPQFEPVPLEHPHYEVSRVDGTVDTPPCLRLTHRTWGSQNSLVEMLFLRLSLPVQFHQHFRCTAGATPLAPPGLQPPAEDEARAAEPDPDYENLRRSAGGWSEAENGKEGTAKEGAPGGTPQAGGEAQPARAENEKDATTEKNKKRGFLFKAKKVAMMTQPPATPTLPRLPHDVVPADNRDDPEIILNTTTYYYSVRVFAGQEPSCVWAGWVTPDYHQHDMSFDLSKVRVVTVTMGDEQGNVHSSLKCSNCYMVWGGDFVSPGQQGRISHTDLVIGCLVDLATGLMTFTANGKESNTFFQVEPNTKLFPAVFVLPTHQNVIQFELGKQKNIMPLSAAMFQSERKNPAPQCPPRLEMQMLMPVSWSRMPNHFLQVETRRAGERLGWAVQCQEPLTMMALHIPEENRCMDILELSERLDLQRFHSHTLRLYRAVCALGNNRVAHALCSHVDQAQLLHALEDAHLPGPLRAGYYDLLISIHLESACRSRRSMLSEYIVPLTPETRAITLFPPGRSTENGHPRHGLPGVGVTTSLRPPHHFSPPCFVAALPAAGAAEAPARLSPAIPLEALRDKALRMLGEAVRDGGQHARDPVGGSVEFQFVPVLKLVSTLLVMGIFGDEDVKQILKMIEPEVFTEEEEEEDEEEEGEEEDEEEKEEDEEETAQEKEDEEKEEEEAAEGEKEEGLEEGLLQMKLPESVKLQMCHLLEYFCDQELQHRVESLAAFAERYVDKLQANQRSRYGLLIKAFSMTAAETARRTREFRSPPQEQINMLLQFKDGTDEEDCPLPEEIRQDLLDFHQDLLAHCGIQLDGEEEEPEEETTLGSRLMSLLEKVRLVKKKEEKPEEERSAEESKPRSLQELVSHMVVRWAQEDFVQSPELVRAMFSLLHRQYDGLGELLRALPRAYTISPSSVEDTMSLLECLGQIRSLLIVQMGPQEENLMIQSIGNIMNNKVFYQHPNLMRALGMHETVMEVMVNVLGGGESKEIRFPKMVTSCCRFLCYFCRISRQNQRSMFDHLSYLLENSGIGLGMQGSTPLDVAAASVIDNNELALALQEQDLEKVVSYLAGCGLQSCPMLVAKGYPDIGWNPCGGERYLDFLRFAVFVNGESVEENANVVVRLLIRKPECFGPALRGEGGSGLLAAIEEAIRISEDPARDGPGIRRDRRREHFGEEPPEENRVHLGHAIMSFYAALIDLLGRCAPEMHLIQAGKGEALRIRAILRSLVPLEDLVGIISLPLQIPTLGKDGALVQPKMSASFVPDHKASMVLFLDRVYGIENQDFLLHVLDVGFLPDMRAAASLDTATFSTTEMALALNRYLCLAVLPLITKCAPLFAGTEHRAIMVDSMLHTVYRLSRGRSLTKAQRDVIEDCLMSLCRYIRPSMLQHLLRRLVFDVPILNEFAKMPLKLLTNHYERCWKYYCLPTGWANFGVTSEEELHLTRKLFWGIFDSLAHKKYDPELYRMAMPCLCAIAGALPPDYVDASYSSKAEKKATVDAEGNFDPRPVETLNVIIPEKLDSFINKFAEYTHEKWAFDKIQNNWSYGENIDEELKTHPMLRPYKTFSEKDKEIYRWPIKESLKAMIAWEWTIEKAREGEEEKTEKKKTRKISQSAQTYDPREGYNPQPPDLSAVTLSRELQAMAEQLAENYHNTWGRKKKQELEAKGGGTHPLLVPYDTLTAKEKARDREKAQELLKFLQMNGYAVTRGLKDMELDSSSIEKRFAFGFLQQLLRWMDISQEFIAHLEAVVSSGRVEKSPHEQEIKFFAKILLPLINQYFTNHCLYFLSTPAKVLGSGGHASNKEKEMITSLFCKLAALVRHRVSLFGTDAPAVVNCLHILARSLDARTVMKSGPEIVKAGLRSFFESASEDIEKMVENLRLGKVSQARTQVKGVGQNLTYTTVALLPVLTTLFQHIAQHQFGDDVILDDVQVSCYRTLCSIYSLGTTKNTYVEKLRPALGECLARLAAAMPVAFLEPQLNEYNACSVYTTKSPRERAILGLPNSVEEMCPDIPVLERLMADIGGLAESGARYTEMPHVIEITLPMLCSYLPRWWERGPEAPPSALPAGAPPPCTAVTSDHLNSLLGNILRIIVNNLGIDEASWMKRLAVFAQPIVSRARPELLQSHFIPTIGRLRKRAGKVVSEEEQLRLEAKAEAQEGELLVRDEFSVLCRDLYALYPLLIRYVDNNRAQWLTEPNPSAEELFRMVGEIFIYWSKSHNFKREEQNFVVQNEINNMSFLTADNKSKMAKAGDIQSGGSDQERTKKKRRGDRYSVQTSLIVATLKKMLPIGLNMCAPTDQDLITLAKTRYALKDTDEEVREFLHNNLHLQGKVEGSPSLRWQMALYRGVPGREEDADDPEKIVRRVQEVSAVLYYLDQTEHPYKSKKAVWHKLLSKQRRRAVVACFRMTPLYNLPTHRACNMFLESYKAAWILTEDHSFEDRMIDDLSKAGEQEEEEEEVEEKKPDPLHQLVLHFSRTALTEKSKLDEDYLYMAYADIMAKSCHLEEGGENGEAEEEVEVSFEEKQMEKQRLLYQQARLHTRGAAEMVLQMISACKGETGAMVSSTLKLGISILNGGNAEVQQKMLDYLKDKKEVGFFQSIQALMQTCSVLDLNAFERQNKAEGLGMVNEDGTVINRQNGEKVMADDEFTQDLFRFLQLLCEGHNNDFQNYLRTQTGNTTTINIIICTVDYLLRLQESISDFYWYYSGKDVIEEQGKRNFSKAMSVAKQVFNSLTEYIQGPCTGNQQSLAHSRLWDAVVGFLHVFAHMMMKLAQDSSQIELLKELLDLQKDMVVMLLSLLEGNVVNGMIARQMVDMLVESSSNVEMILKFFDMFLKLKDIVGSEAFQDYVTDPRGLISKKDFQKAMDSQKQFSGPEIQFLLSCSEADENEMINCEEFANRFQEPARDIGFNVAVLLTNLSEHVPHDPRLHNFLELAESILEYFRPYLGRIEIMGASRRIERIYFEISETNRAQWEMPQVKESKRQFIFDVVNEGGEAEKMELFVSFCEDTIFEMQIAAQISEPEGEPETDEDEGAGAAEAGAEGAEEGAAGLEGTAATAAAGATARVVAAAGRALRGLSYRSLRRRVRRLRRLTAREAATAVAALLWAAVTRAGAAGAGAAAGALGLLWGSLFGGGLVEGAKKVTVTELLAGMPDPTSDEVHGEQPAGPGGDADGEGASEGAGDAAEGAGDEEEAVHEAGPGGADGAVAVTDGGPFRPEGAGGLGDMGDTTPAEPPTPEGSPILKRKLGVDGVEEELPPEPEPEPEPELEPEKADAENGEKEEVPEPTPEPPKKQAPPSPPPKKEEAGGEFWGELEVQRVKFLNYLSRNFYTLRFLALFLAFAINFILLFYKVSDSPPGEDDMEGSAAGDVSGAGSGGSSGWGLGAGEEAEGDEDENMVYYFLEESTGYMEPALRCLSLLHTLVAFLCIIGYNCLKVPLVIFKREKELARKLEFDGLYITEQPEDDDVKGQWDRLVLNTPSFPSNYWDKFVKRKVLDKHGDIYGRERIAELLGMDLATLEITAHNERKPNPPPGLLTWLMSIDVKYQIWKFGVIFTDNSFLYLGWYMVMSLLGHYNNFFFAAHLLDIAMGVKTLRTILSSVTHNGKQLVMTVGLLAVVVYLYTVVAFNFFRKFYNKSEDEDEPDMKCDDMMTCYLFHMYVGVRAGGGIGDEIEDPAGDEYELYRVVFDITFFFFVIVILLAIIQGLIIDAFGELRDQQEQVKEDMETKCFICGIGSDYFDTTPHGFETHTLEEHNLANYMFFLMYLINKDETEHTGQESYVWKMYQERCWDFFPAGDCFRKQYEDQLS

B1: Car10: carbonic anhydrase 10, rodent ortholog, overexpressed (V5-tagged) protein (protein)
chain: MEIVWEVLFLLQANFIVCISAQQNSPKIHEGWWAYKEVVQGSFVPVPSFWGLVNSAWNLCSVGKRQSPVNIETSHMIFDPFLTPLRINTGGRKVSGTMYNTGRHVSLRLDKEHLVNISGGPMTYSHRLEEIRLHFGSEDSQGSEHLLNGQAFSGEVQLIHYNHELYTNVTEAAKSPNGLVVVSIFIKVSDSSNPFLNRMLNRDTITRITYKNDAYLLQGLNIEELYPETSSFITYDGSMTIPPCYETASWIIMNKPVYITRMQMHSLRLLSQNQPSQIFLSMSDNFRPVQPLNNRCIRTNINFSLQGKDCPNNRAQKLQYRVNEWLLK
modifications: left off: small tags and cut ends
notes: carbonic anhydrase 10, rodent ortholog, overexpressed (V5-tagged) protein
binding to RYR1 (co-immunoprecipitation) (RYR1): binds | 5HT-induced cytoplasmic calcium release, effect of overexpression ([1]; listed as V5-Car10): inhibited; also recorded: inhibits 50 μM 5HT-induced cytoplasmic calcium release | ATP-induced cytoplasmic calcium release (Fura-2 340/380 ratio) [2]: inhibits ITPR1-mediated cytoplasmic calcium release | ATP-induced cytoplasmic calcium release (Fura-2 340/380 ratio) ([2]; listed as V5-Car10): inhibits ATP-induced cytoplasmic calcium release

B2: CA10: human carbonic anhydrase 10, overexpressed (V5-tagged) protein; SEQ ID NO: 9 (protein)
chain: MEIVWEVLFLLQANFIVCISAQQNSPKIHEGWWAYKEVVQGSFVPVPSFWGLVNSAWNLCSVGKRQSPVNIETSHMIFDPFLTPLRINTGGRKVSGTMYNTGRHVSLRLDKEHLVNISGGPMTYSHRLEEIRLHFGSEDSQGSEHLLNGQAFSGEVQLIHYNHELYTNVTEAAKSPNGLVVVSIFIKVSDSSNPFLNRMLNRDTITRITYKNDAYLLQGLNIEELYPETSSFITYDGSMTIPPCYETASWIIMNKPVYITRMQMHSLRLLSQNQPSQIFLSMSDNFRPVQPLNNRCIRTNINFSLQGKDCPNNRAQKLQYRVNEWLLK
modifications: V5 tag
binding to RYR1 (co-immunoprecipitation) (RYR1): co-immunoprecipitation; also recorded: binds | 5HT-induced cytoplasmic calcium release, effect of overexpression ([1]; listed as V5-CA10): inhibited; also recorded: inhibits 50 μM 5HT-induced cytoplasmic calcium release | ATP-induced cytoplasmic calcium release (Fura-2 340/380 ratio) [2]: inhibits ITPR1-mediated cytoplasmic calcium release | ATP-induced cytoplasmic calcium release (Fura-2 340/380 ratio) ([2]; listed as V5-CA10): inhibits ATP-induced cytoplasmic calcium release
